The record followed here is patent US6632621B1, “G protein-coupled receptor-like receptors and modulators thereof” (priority 1999, dated 2003).

The target in one assay is CEGPCR19.2 (Caenorhabditis elegans, UniProt H2KZY4). As to the kind of experiment: calcium mobilization assay (FLIPR), transiently transfected CHO cells, CEGPCR19.2. The class given is cell-based, C. elegans. Conditions: Table 13; peptides at 10 μM. The method, then: Changes in intracellular calcium levels are another recognized indicator of […] receptor activity, and such assays can be employed to assay for modulators of GPCR-like receptor activity. For example, CHO cells stably transfected with a GPCR-like receptor expression construct are plated at a density of 4×10^4 cells/well in Packard black-walled 96-well plates specially designed to isolate fluorescent signals to individual wells. The cells are incubated for 60 minutes at 37° C. in modified Dulbecco's PBS (D-PBS), containing 36 mg/L pyruvate and 1 g/L glucose with the addition of 2.5 mM probenecid (Sigma Chemical Co.) and one of four calcium indicator dyes (Fluo3™ AM, Fluo4™ AM, Calcium Green™-1 AM, or Oregon Green™ 488 BAPTA-1 AM) at a concentration of 4 μM. Plates are washed once with modified D-PBS […] 1% fetal bovine serum and incubated for 10 minutes at 37° C. to remove residual dye from the cellular membrane. In addition, a series of washes with modified D-PBS is performed immediately prior to activation of the calcium response.
Sequence of CEGPCR19.2 (H2KZY4 entry or part of it): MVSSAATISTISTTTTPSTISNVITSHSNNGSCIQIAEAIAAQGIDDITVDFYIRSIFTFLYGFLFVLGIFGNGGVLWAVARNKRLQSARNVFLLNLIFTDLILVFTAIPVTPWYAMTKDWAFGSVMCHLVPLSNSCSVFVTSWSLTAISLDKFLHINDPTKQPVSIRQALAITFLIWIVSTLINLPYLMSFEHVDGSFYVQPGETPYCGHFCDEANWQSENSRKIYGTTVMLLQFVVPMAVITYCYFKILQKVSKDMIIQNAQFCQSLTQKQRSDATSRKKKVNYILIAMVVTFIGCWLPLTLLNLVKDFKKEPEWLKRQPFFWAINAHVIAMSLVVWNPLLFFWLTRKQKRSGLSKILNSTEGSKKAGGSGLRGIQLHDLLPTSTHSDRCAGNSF
Calcium response is initiated by the addition of one or more candidate receptor agonist compounds, or a positive control such as a calcium ionophore A23187 (10 μM), or ATP (4 μM). Fluorescence is measured by Molecular Device's FLIPR with an argon laser, excitation at 488 nm. […] Basal fluorescence of cells was measured for 20 seconds prior to addition of agonist, ATP, or A23187, and was subtracted from the response signal. The calcium signal is measured for approximately 200 seconds, taking readings every two seconds. […]
This appears especially useful for the assessment of possible activation of orphan GPCRs (i.e., GPCRs having unknown functions and unknown signaling pathways). […] Because the GTPγS assay is known to poorly recognize GPCRs coupled to the Gq class of G-proteins, a Ca^+2 mobilization assay, based on a FLIPR readout, was used as well to evaluate putative Gq-couplcd orphan GPCRs transiently transfected into CHO cells. […] Without the temperature downshift, expression of functional receptor could not be detected. […]
A general note: Calcium flux is commonly read through the fluorescence of an indicator in the cells.

For the next assay, the target named is T1, CEGPCR5 (Caenorhabditis elegans, UniProt Q18179).
T1 sequence (Q18179 1-402): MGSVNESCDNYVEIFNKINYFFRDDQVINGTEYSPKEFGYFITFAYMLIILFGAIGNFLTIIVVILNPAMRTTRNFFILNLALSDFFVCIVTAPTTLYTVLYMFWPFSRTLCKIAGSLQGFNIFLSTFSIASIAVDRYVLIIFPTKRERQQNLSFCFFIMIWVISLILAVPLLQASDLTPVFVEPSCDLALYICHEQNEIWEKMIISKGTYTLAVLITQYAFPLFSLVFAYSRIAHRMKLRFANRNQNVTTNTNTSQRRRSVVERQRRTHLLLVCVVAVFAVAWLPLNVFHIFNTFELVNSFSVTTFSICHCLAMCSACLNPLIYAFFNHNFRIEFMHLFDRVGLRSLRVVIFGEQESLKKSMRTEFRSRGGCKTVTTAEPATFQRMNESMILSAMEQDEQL
As to the kind of experiment: [35S]GTPγS binding assay, CEGPCR5 expressed in CHO cells. The class given is biochemical, C. elegans. The conditions noted are these: for EC50: EC50 range. The method, then: (§1) Recombinant pCR3.1 clones encoding invertebrate GPCR-like receptors were transformed into wild-type CHO-K1 cells and functional expression was achieved using a temperature-shift incubation protocol. The CHO-K1 cells were cultured at 37° C. in a humidified atmosphere of 5% CO2 in air in DMEM medium supplemented with 10% heat-inactivated fetal bovine serum (i.e., FBS), 10 μg/ml gentamicin, and 0.1 mM nonessential amino acids to give complete DMEM medium. Additionally, for incubations at temperatures lower than 37° C., the medium was fortified with 10 mM HEPES (pH 7.4). Cells were transfected with recombinant pCR3.1 clones containing GPCR-like receptor DNAs, using LipofectAMINE PLUS™, essentially according to the manufacturer's instructions. […] In separate plastic tubes, PLUS (20 μl/plate; Life Technologies) was added to 0.75 ml/plate of recombinant plasmid DNA in OptiMEM (5 μg/plate; Gibco/BRL—Life Technologies), mixed and incubated at room temperature for 15 minutes. Separately, LipofectAMINE (30 μl/plate) was mixed with 0.75 ml OptiMEM and added to the pre-complexed DNA/PLUS mixture and incubated at room temperature for 15 minutes. The culture medium was then replaced with serum-free transfection medium (DMEM, 5 ml/plate). The DNA-PLUS-LipofectAMINE complex was then added to the plates (1.5 ml/plate) and mixed gently into the medium, followed by a 3 hour incubation at 37° C. in 5% CO2. At this time, the medium was supplemented with complete DMEM medium containing 20% FBS (6.5 ml/plate) and incubation was continued at 37° C. in 5% CO2. After a total of 24 hours at 37° C. in 5% CO2, the medium was replaced with complete DMEM medium fortified with 10 mM HEPES (10 ml/plate) and the cells were moved to an incubator maintained at 28-30° C. in a humidified atmosphere of 5% CO2 in air. The incubation continued for an additional 24 hours, typically at the lower temperature indicated above. A plasmid encoding Green Fluorescent Protein (i.e., GFP, 4 μg/plate) was used for transient GFP expression in CHO-K1 cells to estimate the transfection yields under the same conditions as used for GPCR-like receptor polynucleotides.
(§2) To assess expression, membranes were prepared from transfected CHO-K1 cells. Transfected cells were washed once with ice-cold Dulbecco's phosphate-buffered saline (i.e., PBS), 5 ml per 10 cm plate, and the cells were scraped into 5 ml of the same buffer. Cell suspensions from multiple plates were combined and centrifuged at 500×g for 10 minutes at 4° C. The cell pellet was reconstituted in ice-cold TEE (25 mM Tris, pH 7.4, 5 mM EGTA, 5 mM EDTA). Convenient aliquots were snap-frozen in liquid nitrogen and stored at −70° C. After thawing, the cells were homogenized and centrifuged at 500×g for 5 minutes at 4° C. to pellet nuclei and unbroken cells. Tile supernatant was centrifuged at 47,000×g for 30 minutes at 4° C. The membrane pellet was washed once with TEE, resuspended in 20 mM HEPES, pH 7.4, 100 mM NaCl, 10 mM MgCl2, 1 mM EDTA (assay buffer), distributed into aliquots of 0.5-1.0 ml, and frozen in liquid nitrogen. Membrane aliquots were stored at −70° C. Membrane protein concentration was determined using the BCA Protein Assay Reagent from Pierce (Rockford, Ill.), with bovine serum albumin (i.e., BSA) as a standard.
Aliquots of cell membranes prepared as described above and stored at −70° C. were thawed, homogenized, and diluted into buffer containing 20 mM HEPES, pH 7.4, 10 mM MgCl2, 1 mM EDTA, and 100 mM NaCl at a concentration of 10-50 μg/ml. Reaction mixtures were prepared in 96-well polypropylene plate, Nunc. Twenty microliters of a 10× putative modulator compound (including but not limited to potential peptide ligands) solution or a water control (20 μl), 18.2 µM GDP (0.11 ml, 10 μM final concentration), and a membrane preparation were mixed and placed on ice. The modulator/ligand-GDP-membrane mixtures were incubated for 20 minutes at room temperature on a shaking platform and then placed on ice.
Background: GTPγS resists hydrolysis and so accumulates on activated G proteins.

In another assay the target is T2, CEGPCR7 receptor (Caenorhabditis elegans, UniProt Q18534).
T2 construct: Each of the 22 putative GPCR-like receptor clones appeared to contain a full-length coding region; expressed in transfected cells; host or cells: CHO-K1, transient, pCR3.1 clone, 37 to 28 C temperature shift
T2 sequence (Q18534 1-457): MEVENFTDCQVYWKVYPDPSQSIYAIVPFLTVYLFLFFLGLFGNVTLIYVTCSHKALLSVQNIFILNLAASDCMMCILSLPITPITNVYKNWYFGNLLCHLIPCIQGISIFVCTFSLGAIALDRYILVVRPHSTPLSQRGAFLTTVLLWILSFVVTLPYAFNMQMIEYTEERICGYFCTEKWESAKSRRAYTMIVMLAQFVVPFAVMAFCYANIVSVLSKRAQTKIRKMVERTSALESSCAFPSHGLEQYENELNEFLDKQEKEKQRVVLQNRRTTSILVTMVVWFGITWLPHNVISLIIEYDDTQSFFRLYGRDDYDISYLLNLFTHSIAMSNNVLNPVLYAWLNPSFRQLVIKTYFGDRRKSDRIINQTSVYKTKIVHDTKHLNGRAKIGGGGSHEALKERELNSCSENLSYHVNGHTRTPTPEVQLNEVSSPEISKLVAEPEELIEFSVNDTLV
As to the kind of experiment: [35S]GTPγS binding assay, membranes of CHO cells transfected with CEGPCR7. The class given is biochemical, C. elegans. The method, then:
as §1, §2
Aliquots of cell membranes prepared as described above and stored at −70° C. were thawed, homogenized, and diluted into buffer containing 20 mM HEPES, pH 7.4, 10 mM MgCl2, 1 mM EDTA, and 100 mM NaCl at a concentration of 10-50 μg/ml.

In assay [1] the target is T3, CEGPCR4 (C. elegans).
T3 construct: Expressed in CHO cells; also called CEGPCR4 receptor; CEGPCR4/CHO membranes
T3 chain: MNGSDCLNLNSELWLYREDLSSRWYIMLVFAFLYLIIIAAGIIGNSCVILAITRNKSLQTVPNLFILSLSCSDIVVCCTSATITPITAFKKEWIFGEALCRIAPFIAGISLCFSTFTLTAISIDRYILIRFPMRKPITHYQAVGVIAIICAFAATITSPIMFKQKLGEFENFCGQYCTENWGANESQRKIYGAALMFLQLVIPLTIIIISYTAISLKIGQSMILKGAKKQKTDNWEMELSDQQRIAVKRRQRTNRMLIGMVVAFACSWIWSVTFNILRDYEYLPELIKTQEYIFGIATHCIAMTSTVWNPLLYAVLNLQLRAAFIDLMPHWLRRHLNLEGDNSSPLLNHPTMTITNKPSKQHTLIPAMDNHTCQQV
As to the kind of experiment: competition binding assay, CEGPCR4/CHO membranes; IC50 range printed once for block r9-r18.

Assay [2] has as its target T3, CEGPCR4. As to the kind of experiment: competition binding assay, CEGPCR4/CHO membranes; IC50 range printed once for block r19-r25.

Where a SMILES comes first, the peptide text is derived from it. Where no end group is shown, it is not given here. [ ]: non-standard residue; d: D form. Tyr(3-I) = N[C@@H](Cc1ccc(O)c(I)c1)C(=O)O; Nle = CCCC[C@H](N)C(=O)O

Consider LQPNFLRF-NH2, for which, in the assay with CEGPCR19.2, the “activity at single concentration” value is given as “peptides active”.
A word on the EC50: it is the concentration that produces a half-maximal response. Lower therefore signals greater potency. Take `CC(C)C[C@H](NC(=O)CNC(=O)[C@@H](N)Cc1ccc(O)c(I)c1)C(=O)NCC(=O)N1CCC[C@H]1C(=O)N[C@@H](CCCNC(=N)N)C(=O)N1CCC[C@H]1C(=O)N[C@@H](CC(C)C)C(=O)N[C@@H](CCCNC(=N)N)C(=O)N[C@@H](Cc1ccccc1)C(N)=O` [[I]Y^0-GLGPRPLRF-NH2] (H-[Tyr(3-I)]GLGPRPLRF-NH2): the half-maximal effective concentration (EC50) is 176 to 273 nM on CEGPCR5; 80 to 800 nM on CEGPCR5 (Table 9, one range for the group of peptides); 237 nM on CEGPCR7 receptor (EC50, single values); 200 to 250 nM at CEGPCR7 receptor (EC50 range, Table 7, one range for the group of peptides). At CEGPCR5 (ratio of potency), the “less potent than AF9” value is “about 200 fold”.

B1: ASPSFIRF-NH2 (peptide)
peptide: ASPSFIRF-NH2
notes: flp4
For the molecule B1, in the assay with CEGPCR4 [1], the binding result is “binds”.

B2: SVPGVLRF-NH2 (peptide)
peptide: SVPGVLRF-NH2
notes: flp18
B2: the binding result in the assay with CEGPCR4 [1] is “binds”.

B3: GNSFLRF-NH2 (peptide)
peptide: GNSFLRF-NH2
notes: also called GNSFLRFamide
For the molecule B3, the binding result in the assay with CEGPCR4 [2] is listed as “binds”.

B4: SEVPGVLRF-NH2 (peptide)
peptide: SEVPGVLRF-NH2
notes: flp18
As for B4, the binding result in the assay with CEGPCR4 [1] is listed as “binds”.

B5: DFDGAMPGVLRF-NH2 (peptide)
peptide: DFDGAMPGVLRF-NH2
notes: flp18
B5: the binding result with CEGPCR4 [1] is given as “binds”.

B6: KPNFLRF-NH2 (peptide)
peptide: KPNFLRF-NH2
notes: flp1
Consider B6, for which the binding result with CEGPCR4 [2] was “binds”.

B7: KSVPGVLRF-NH2 (peptide)
peptide: KSVPGVLRF-NH2
notes: flp18
With B7, the binding result with CEGPCR4 [1] is listed as “binds”.

B8: ILNleRF-NH2 (peptide)
peptide: IL[Nle]RF-NH2
modifications: N-terminus assumed
SMILES: CCCC[C@H](NC(=O)[C@H](CC(C)C)NC(=O)[C@@H](N)[C@@H](C)CC)C(=O)N[C@@H](CCCNC(=N)N)C(=O)N[C@@H](Cc1ccccc1)C(N)=O
notes: synthetic
For B8, the binding result with CEGPCR4 [2] was “binds”.
